The record followed here is patent US20250388666A1 (BRIGHAM AND WOMEN S HOSPITAL, published 2025).

The labels stand for the following.
T1: CEACAM1 (Sino Biological) (human, UniProt P13688 35-428, limits assumed)
T1 construct: may be the same as CEACAM1-HIS; also called hCEACAM1; biotinylated soluble CEACAM1
T1 sequence: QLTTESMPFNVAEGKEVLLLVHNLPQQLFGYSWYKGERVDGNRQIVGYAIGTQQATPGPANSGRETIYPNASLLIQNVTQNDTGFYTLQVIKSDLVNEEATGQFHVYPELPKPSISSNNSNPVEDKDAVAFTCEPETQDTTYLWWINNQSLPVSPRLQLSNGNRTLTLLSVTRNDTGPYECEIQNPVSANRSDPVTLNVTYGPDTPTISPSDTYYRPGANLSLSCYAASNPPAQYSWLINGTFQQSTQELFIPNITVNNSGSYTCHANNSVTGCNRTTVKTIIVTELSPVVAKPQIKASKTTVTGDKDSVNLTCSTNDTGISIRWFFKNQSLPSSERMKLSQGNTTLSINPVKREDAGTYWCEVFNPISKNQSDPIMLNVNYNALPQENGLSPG

B1: He4/L4#2 (antibody, IgG4, V domains shown)
VH: EVQLLESGGGLVQPGGSLRLSCAASGFSFSDYYLYWVRQAPGKGLEWVATISVGGGQTSYADSVKGRFTISRDNSKNTLYLQMNSLRAEDTAMYYCTRALYYGPAWFAYWGQGTLVTVSS
VL: DIVMTQSPDSLAVSLGERATINCKSSQSLLNSANQKNYLAWYQQKPGQPPKLLIYFASTRESGVPDRFSGSGSGTDFTLTISSLQAEDVAVYYCQSHYPYPYTFGGGTKVEIK
notes: IgG4 S241P, kappa
B2: He6/L5 (antibody, IgG4, V domains shown)
VH: EVQLLESGGGLVQPGGSLRLSCAASGFSFSDYYLYWVRQAPGKGLEWVATISVGGGQTSYADSVKGRFTISRDNSKNTLYLQMNSLRAEDTAMYYCARARTYGPAWFAYWGQGTLVTVSS
VL: DIVMTQSPDSLAVSLGERATINCKSSQSLLNSANQKNYLAWYQQKPGQPPKLLIYFASTRESGVPDRFSGSGSGTDFTLTISSLQAEDVAVYYCQSHYPFAFTFGGGTKVEIK
notes: IgG4 S241P, kappa
B3: He6/L4#2 (antibody, IgG4, V domains shown)
VH: EVQLLESGGGLVQPGGSLRLSCAASGFSFSDYYLYWVRQAPGKGLEWVATISVGGGQTSYADSVKGRFTISRDNSKNTLYLQMNSLRAEDTAMYYCARARTYGPAWFAYWGQGTLVTVSS
VL: DIVMTQSPDSLAVSLGERATINCKSSQSLLNSANQKNYLAWYQQKPGQPPKLLIYFASTRESGVPDRFSGSGSGTDFTLTISSLQAEDVAVYYCQSHYPYPYTFGGGTKVEIK
notes: IgG4 S241P, kappa
B4: He6/L16 (antibody, IgG4, V domains shown)
VH: EVQLLESGGGLVQPGGSLRLSCAASGFSFSDYYLYWVRQAPGKGLEWVATISVGGGQTSYADSVKGRFTISRDNSKNTLYLQMNSLRAEDTAMYYCARARTYGPAWFAYWGQGTLVTVSS
VL: DIVMTQSPDSLAVSLGERATINCKSSQSLLNSANQKNYLAWYQQKPGQPPKLLIYFASTRESGVPDRFSGSGSGTDFTLTISSLQAEDVAVYYCQSHYPYPFTFGGGTKVEIK
notes: IgG4 S241P, kappa
B5: He6/L2 (antibody, IgG4, V domains shown)
VH: EVQLLESGGGLVQPGGSLRLSCAASGFSFSDYYLYWVRQAPGKGLEWVATISVGGGQTSYADSVKGRFTISRDNSKNTLYLQMNSLRAEDTAMYYCARARTYGPAWFAYWGQGTLVTVSS
VL: DIVMTQSPDSLAVSLGERATINCKSSQSLLNSANQKNYLAWYQQKPGQPPKLLIYFASTRESGVPDRFSGSGSGTDFTLTISSLQAEDVAVYYCQSHYPFPYTFGGGTKVEIK
notes: IgG4 S241P, kappa
B6: He4/L17 (antibody, IgG4, V domains shown)
VH: EVQLLESGGGLVQPGGSLRLSCAASGFSFSDYYLYWVRQAPGKGLEWVATISVGGGQTSYADSVKGRFTISRDNSKNTLYLQMNSLRAEDTAMYYCTRALYYGPAWFAYWGQGTLVTVSS
VL: DIVMTQSPDSLAVSLGERATINCKSSQSLLNSANQKNYLAWYQQKPGQPPKLLIYFASTRESGVPDRFSGSGSGTDFTLTISSLQAEDVAVYYCQSHYPYPYTFGGGTKVEIK
notes: IgG4 S241P, kappa
B7: He4/L20 (antibody, IgG4, V domains shown)
VH: EVQLLESGGGLVQPGGSLRLSCAASGFSFSDYYLYWVRQAPGKGLEWVATISVGGGQTSYADSVKGRFTISRDNSKNTLYLQMNSLRAEDTAMYYCTRALYYGPAWFAYWGQGTLVTVSS
VL: DIVMTQSPDSLAVSLGERATINCKSSQSLLNSANQKNYLAWYQQKPGQPPKLLIYFASTRESGVPDRFSGSGSGTDFTLTISSLQAEDVAVYYCQSHFPYPLTFGGGTKVEIK
notes: IgG4 S241P, kappa
B8: He4/L18 (antibody, IgG4, V domains shown)
VH: EVQLLESGGGLVQPGGSLRLSCAASGFSFSDYYLYWVRQAPGKGLEWVATISVGGGQTSYADSVKGRFTISRDNSKNTLYLQMNSLRAEDTAMYYCTRALYYGPAWFAYWGQGTLVTVSS
VL: DIVMTQSPDSLAVSLGERATINCKSSQSLLNSANQKNYLAWYQQKPGQPPKLLIYFASTRESGVPDRFSGSGSGTDFTLTISSLQAEDVAVYYCQSHFPYPFTFGGGTKVEIK
notes: IgG4 S241P, kappa
B9: He4/Parent VL (antibody, IgG4, V domains shown)
VH: EVQLLESGGGLVQPGGSLRLSCAASGFSFSDYYLYWVRQAPGKGLEWVATISVGGGQTSYADSVKGRFTISRDNSKNTLYLQMNSLRAEDTAMYYCTRALYYGPAWFAYWGQGTLVTVSS
VL: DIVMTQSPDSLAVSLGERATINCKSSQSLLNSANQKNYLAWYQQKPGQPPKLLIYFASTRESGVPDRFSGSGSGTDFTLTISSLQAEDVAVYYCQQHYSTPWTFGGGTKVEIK
notes: IgG4 S241P, kappa
B10: He6/L3 (antibody, IgG4, V domains shown)
VH: EVQLLESGGGLVQPGGSLRLSCAASGFSFSDYYLYWVRQAPGKGLEWVATISVGGGQTSYADSVKGRFTISRDNSKNTLYLQMNSLRAEDTAMYYCARARTYGPAWFAYWGQGTLVTVSS
VL: DIVMTQSPDSLAVSLGERATINCKSSQSLLNSANQKNYLAWYQQKPGQPPKLLIYFASTRESGVPDRFSGSGSGTDFTLTISSLQAEDVAVYYCQSHFPFPFTFGGGTKVEIK
notes: IgG4 S241P, kappa
B11: He6/L6 (antibody, IgG4, V domains shown)
VH: EVQLLESGGGLVQPGGSLRLSCAASGFSFSDYYLYWVRQAPGKGLEWVATISVGGGQTSYADSVKGRFTISRDNSKNTLYLQMNSLRAEDTAMYYCARARTYGPAWFAYWGQGTLVTVSS
VL: DIVMTQSPDSLAVSLGERATINCKSSQSLLNSANQKNYLAWYQQKPGQPPKLLIYFASTRESGVPDRFSGSGSGTDFTLTISSLQAEDVAVYYCQSHYPFSFTFGGGTKVEIK
notes: IgG4 S241P, kappa
B12: He4/L5 (antibody, IgG4, V domains shown)
VH: EVQLLESGGGLVQPGGSLRLSCAASGFSFSDYYLYWVRQAPGKGLEWVATISVGGGQTSYADSVKGRFTISRDNSKNTLYLQMNSLRAEDTAMYYCTRALYYGPAWFAYWGQGTLVTVSS
VL: DIVMTQSPDSLAVSLGERATINCKSSQSLLNSANQKNYLAWYQQKPGQPPKLLIYFASTRESGVPDRFSGSGSGTDFTLTISSLQAEDVAVYYCQSHYPFAFTFGGGTKVEIK
notes: IgG4 S241P, kappa
B13: He4/L6 (antibody, IgG4, V domains shown)
VH: EVQLLESGGGLVQPGGSLRLSCAASGFSFSDYYLYWVRQAPGKGLEWVATISVGGGQTSYADSVKGRFTISRDNSKNTLYLQMNSLRAEDTAMYYCTRALYYGPAWFAYWGQGTLVTVSS
VL: DIVMTQSPDSLAVSLGERATINCKSSQSLLNSANQKNYLAWYQQKPGQPPKLLIYFASTRESGVPDRFSGSGSGTDFTLTISSLQAEDVAVYYCQSHYPFSFTFGGGTKVEIK
notes: IgG4 S241P, kappa
B14: He4/L19 (antibody, IgG4, V domains shown)
VH: EVQLLESGGGLVQPGGSLRLSCAASGFSFSDYYLYWVRQAPGKGLEWVATISVGGGQTSYADSVKGRFTISRDNSKNTLYLQMNSLRAEDTAMYYCTRALYYGPAWFAYWGQGTLVTVSS
VL: DIVMTQSPDSLAVSLGERATINCKSSQSLLNSANQKNYLAWYQQKPGQPPKLLIYFASTRESGVPDRFSGSGSGTDFTLTISSLQAEDVAVYYCQSHIYPNFTFGGGTKVEIK
notes: IgG4 S241P, kappa
B15: He6/L1 (antibody, IgG4, V domains shown)
VH: EVQLLESGGGLVQPGGSLRLSCAASGFSFSDYYLYWVRQAPGKGLEWVATISVGGGQTSYADSVKGRFTISRDNSKNTLYLQMNSLRAEDTAMYYCARARTYGPAWFAYWGQGTLVTVSS
VL: DIVMTQSPDSLAVSLGERATINCKSSQSLLNSANQKNYLAWYQQKPGQPPKLLIYFASTRESGVPDRFSGSGSGTDFTLTISSLQAEDVAVYYCQSHYPFYYTFGGGTKVEIK
notes: IgG4 S241P, kappa
B16: He6/L4 #1 (antibody, IgG4, V domains shown)
VH: EVQLLESGGGLVQPGGSLRLSCAASGFSFSDYYLYWVRQAPGKGLEWVATISVGGGQTSYADSVKGRFTISRDNSKNTLYLQMNSLRAEDTAMYYCARARTYGPAWFAYWGQGTLVTVSS
VL: DIVMTQSPDSLAVSLGERATINCKSSQSLLNSANQKNYLAWYQQKPGQPPKLLIYFASTRESGVPDRFSGSGSGTDFTLTISSLQAEDVAVYYCQSHFPYYYTFGGGTKVEIK
notes: IgG4 S241P, kappa

This assay has as its target T1, CEACAM1 (Sino Biological). The assay is described as follows: SPR single-cycle. On the procedure: To assess the binding of the humanized affinity matured IgGs, single cycle kinetics analysis was performed on crude supernatants using a Biacore T200 running Biacore T200 Control Software V2.0.1 and Biacore T200 Evaluation Software V3.0 (Uppsala, Sweden). Antibodies were diluted in HBS-P+ (GE Healthcare) to a final concentration of […]. At the start of each cycle, antibodies were loaded onto Fc2, Fc3 and Fc4 of the Protein A chip (GE Healthcare). IgGs were captured at a flow rate of 10 μl/min to give an immobilization level (RL) of ˜100 RU (a level calculated to obtain an Rmax of ˜50-150 RU once the analyte is bound). The surface was then allowed to stabilize. Single cycle kinetics data was obtained with CEACAM1 as the analyte at a flow rate of […] to minimize any potential mass transfer effects. Multiple repeats with the parent (VH2 N56Q/Vκ4 S27(f)A) antibody were performed to check the stability of the surface and analyte over the kinetic cycles. The signal from the reference channel Fc1 (no antibody) was subtracted from that of Fc2, Fc3 and Fc4 to correct for differences in non-specific binding to the reference surface. A three point, two-fold dilution range from 25 nM to 100 nM CEACAM 1 without regeneration between each concentration was used. The signal from each antibody blank run (no CEACAM1) was subtracted to correct for differences in surface stability. The association phase for the three injections of increasing concentrations of CEACAM1 was monitored for 200 seconds each time and a single dissociation phase was measured for 300 seconds following the last injection of CEACAM1. Regeneration of the Protein A surface was conducted using two injections of 10 mM glycine-HCL pH 1.5 followed by a stabilization period of 240 seconds.
As for B1, binding was characterised by a dissociation constant (Kd) of 127 nM and the “fold better than Parent (KD)” value came out at 4.34 fold.

Consider B2, for which the affinity, expressed as Kd, was 84 nM and the “fold better than Parent (KD)” value stood at 1.89 fold.

For the molecule B3, the Kd was found to be 146 nM and the “fold better than Parent (KD)” value was determined as 3.78 fold.

In the case of B4, the Kd worked out at 66 nM and the “fold better than Parent (KD)” value was 2.41 fold.

Take B5: the Kd came out at 104 nM and the “fold better than Parent (KD)” value was 1.53 fold.

As to B6, binding was put at a Kd of 62 nM and the “fold better than Parent (KD)” value was determined as 2.55 fold.

Take B7: the Kd was found to be 90 nM and the “fold better than Parent (KD)” value is 1.77 fold.

As for B8, the Kd worked out at 55 nM and the “fold better than Parent (KD)” value came to 2.89 fold.

As to B9, binding was put at a Kd of 155 nM and the “fold better than Parent (KD)” value amounted to 1.03 fold.

Regarding B10, the Kd stood at 94 nM and the “fold better than Parent (KD)” value was determined as 1.69 fold.

On to B11, for which binding was put at a Kd of 89 nM and the “fold better than Parent (KD)” value worked out at 1.78 fold.

As for B12, the Kd amounted to 68 nM and the “fold better than Parent (KD)” value was 2.36 fold.

Take B13: binding was put at a Kd of 72 nM and the “fold better than Parent (KD)” value is 2.22 fold.

As to B14, the Kd came out at 90 nM and the “fold better than Parent (KD)” value came out at 1.77 fold.

Consider B15, for which binding was characterised by a dissociation constant (Kd) of 98 nM and the “fold better than Parent (KD)” value is 1.62 fold.

With B16, binding was put at a Kd of 155 nM and the “fold better than Parent (KD)” value was found to be 1.03 fold.

In general, Kd refers to the concentration at which binding is half-saturated. A high value points to weaker binding.
